Where a chain is given by its changes, count along the chain named.
What was measured:
Test in all cases: EMSA
BsSpo0J H57E = molecular target: T1, BsSpo0J H57E (UniProt P26497 1-282, H57E)
T1 sequence: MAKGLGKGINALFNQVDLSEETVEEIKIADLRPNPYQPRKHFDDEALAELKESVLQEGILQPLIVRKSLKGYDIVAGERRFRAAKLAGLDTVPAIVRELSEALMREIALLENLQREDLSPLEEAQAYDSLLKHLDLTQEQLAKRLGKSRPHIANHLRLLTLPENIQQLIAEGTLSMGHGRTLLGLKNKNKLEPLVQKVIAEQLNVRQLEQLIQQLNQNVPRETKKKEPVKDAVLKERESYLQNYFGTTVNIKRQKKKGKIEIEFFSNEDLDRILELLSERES

BsSpo0J Q140A = molecular target: T2, BsSpo0J Q140A (UniProt P26497 1-282, Q140A)
T2 sequence: T1 sequence with E57H, Q140A

BsSpo0J Q61R = molecular target: T3, BsSpo0J Q61R (UniProt P26497 1-282, Q61R)
T3 sequence: T1 sequence with E57H, Q61R

BsSpo0J V75A = molecular target: T4, BsSpo0J V75A (UniProt P26497 1-282, V75A)
T4 sequence: T1 sequence with E57H, V75A

BsSpo0J R105A = molecular target: T5, BsSpo0J R105A (UniProt P26497 1-282, R105A)
T5 sequence: T1 sequence with E57H, R105A

BsSpo0J WT = molecular target: T6, BsSpo0J WT (UniProt P26497 1-282)
T6 sequence: T1 sequence with E57H

BsSpo0J F81A = molecular target: T7, BsSpo0J F81A (UniProt P26497 1-282, F81A)
T7 sequence: T1 sequence with E57H, F81A

BsSpo0J R105E = molecular target: T8, BsSpo0J R105E (UniProt P26497 1-282, R105E)
T8 sequence: T1 sequence with E57H, R105E

Measured: binding result

B1: 39-bp parS (dsDNA)
DNA 1: CAGTTGAATCAGAATGTTCCACGTGAAACAAAGAAAAAA
DNA 2: TTTTTTCTTTGTTTCACGTGGAACATTCTGATTCAACTG
binds: BsSpo0J H57E | BsSpo0J Q140A | BsSpo0J Q61R | BsSpo0J V75A | BsSpo0J R105A | BsSpo0J WT | BsSpo0J F81A | BsSpo0J R105E

Reference: paper PMC5499601 (Nucleic Acids Research, 2017)
